How the values were obtained:
ICAM-R = biological target: T1, ICAM-R (Homo sapiens, UniProt P32942); assay: Blocking of biotinylated murine ICR-8.1 binding
T1 construct: express the full length ICAM-1 and ICAM-R proteins, respectively; expressed in transfected cells; host or cells: COS cells, DEAE-dextran, plasmid pcDNA1AmpICAM-R
T1 sequence (P32942 30-547): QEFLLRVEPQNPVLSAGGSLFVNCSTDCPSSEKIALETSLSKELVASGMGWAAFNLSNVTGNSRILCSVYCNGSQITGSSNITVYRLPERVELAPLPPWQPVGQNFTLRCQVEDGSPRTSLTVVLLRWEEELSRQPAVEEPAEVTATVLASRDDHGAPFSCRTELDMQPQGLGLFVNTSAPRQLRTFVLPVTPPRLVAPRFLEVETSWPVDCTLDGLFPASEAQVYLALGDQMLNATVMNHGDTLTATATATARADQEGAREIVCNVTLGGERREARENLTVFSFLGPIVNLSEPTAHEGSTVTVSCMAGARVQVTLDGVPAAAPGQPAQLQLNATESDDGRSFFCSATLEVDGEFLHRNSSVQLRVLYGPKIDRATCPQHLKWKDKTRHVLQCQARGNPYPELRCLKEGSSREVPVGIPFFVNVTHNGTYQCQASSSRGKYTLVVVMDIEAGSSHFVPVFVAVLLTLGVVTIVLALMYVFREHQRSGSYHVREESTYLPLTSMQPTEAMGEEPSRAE
Excerpt: However, antibodies containing the humanized heavy chain with the Ile2 mutation show an approximate 2-fold improvement in binding over the aforementioned antibodies. In experiments in blocking the binding of biotinylated murine ICR-8.1 to ICAM-R, the miHu/VHI/HuVK and miHuVHI/MuVK antibodies compete about 2-fold less well than the murine antibody itself.

[1] = system: Neutrophil binding to ICAM-R/His; assay: Neutrophil adhesion; assay type: cell-based, human
Method: (§1) Binding of HL-60 cells, neutrophils, and COS cells expressing. CD11b to the chimeric proteins was assayed as follows. The chimeric fusion proteins were diluted to 20 μg/ml in 0.1 M Na-carbonate/bicarbonate buffer (pH 9.6) and 50 μl was used to coat each well (in triplicate) of an Immulon 4 96-well plate (Dynatech). The plates were incubated overnight at 4° C. and washed three times in PBS. Wells were blocked with 1% human serum albumin (HSA) for one hour at 37° C. and washed three times in PBS. Two hundred μl of RPMI+0.25% HSA (with/without phorbol ester at 10 ng/ml, with/without blocking mAb at 15 μg/ml) was added to each well. ICAM-R antibodies used were ICR-1.1, ICR-8.1, ICR-4.2, ICR-6.2, ICR-9.2, and ICR-19.3. CD11a blocking antibody TS1/22 (ATCC HB202) and CD11b blocking antibodies 44AACB (ATCC HB249) and LM2/1 (ATCC HB204) were also used as well as monoclonal antibodies IC/A4.1 to CD49d (α4) and 22F12C to CD18, both of which were generated using standard hybridoma techniques. […] The adherent cells were quantified by staining with crystal violet (1% solution in 10% ethanol), washing with water and eluting the dye with 66% ethanol in water and measuring the absorbance at 570 nm. In each experiment percent cells bound was calculated using the absorbency values obtained from the CD18 mAb coated well as 100%. […]

[2] = biological target: T2, αd/CD18 transfected CHO cells (Homo sapiens, UniProt P05107+Q13349); assay: Binding of transfected CHO cells to immobilized chimeras; assay type: cell-based; settings: immobilized chimera
T2 construct: expressed in transfected cells; host or cells: CHO cells
Method: (§2) In replicate assays, soluble ICAM-1, ICAM-R, or VCAM-1 IgG1 chimeric fusion proteins were immobilized on plastic and the ability of αd/CD18 or LFA-1 transfected CHO cells (see co-owned, concurrently filed U.S. patent application Ser. No. 08/286,889 identified as attorney docket No. 32168) to bind the immobilized ligand was determined. Transfected cells were labeled internally with calcein, washed in binding buffer (RPMI with 1% BSA), and incubated in either buffer only (with or without 10 ng/ml PMA) or buffer with anti-CD18 at 10 μg/ml. Transfected cells were added to 96-well Immulon 4 microtiter plates previously coated with soluble ICAM-1/Ig, ICAM-R/Ig or VCAM-1/Ig chimera, or bovine serum albumin (BSA) as a negative control. Wells were blocked with 1% BSA in PBS prior to addition of labeled cells. After washing the plates by immersion in PBS with 0.1% BSA for 20 minutes, total fluorescence remaining in each well was measured using a Cytofluor 2300 (Millipore, Milford, Mass.).

[3] = biological target: T2, αd/CD18 transfected CHO cells; assay: Flow cytometry binding of soluble chimeras; settings: chimera 5 μg/ml
Method: Binding of αd/CD18-transfected cells to soluble ICAM-1/IgG, ICAM-R/IgG, or VCAM-1/IgG chimeras was determined by flow cytometry. Approximately one million αd/CD18-transfected CHO cells (grown in spinner flasks for higher expression) per measurement were suspended in 100 μl binding buffer (RPMI and 1% BSA) with or without 10 μg/ml anti-CD18 antibody. After a 20 minute incubation at room temperature, the cells were washed in binding buffer and soluble ICAM-1/IgG or ICAM-R/IgG chimera was added to a final concentration of 5 μg/ml. Binding was allowed to proceed for 30 minute at 37° C., after which the cells were washed three times and resuspended in 100 μl binding buffer containing FITC-conjugated sheep anti-human IgG1 at a 1:100 dilution. After a 30 minute incubation, samples were washed three times and suspended in 200 μl binding buffer for analysis with a Becton Dickinson FACScan.

[4] = biological target: T3, LFA-1 transfected CHO cells (Homo sapiens, UniProt P05107+P20701); assay: Binding of transfected CHO cells to immobilized chimeras; assay type: cell-based; settings: only following pretreatment with PMA
T3 construct: expressed in transfected cells; host or cells: CHO cells
Method: as §2

[5] = system: neutrophil binding to ICAM-2; assay: Neutrophil adhesion; assay type: cell-based, human
Method: as §1

T2 sequence (Q13349 18-1161): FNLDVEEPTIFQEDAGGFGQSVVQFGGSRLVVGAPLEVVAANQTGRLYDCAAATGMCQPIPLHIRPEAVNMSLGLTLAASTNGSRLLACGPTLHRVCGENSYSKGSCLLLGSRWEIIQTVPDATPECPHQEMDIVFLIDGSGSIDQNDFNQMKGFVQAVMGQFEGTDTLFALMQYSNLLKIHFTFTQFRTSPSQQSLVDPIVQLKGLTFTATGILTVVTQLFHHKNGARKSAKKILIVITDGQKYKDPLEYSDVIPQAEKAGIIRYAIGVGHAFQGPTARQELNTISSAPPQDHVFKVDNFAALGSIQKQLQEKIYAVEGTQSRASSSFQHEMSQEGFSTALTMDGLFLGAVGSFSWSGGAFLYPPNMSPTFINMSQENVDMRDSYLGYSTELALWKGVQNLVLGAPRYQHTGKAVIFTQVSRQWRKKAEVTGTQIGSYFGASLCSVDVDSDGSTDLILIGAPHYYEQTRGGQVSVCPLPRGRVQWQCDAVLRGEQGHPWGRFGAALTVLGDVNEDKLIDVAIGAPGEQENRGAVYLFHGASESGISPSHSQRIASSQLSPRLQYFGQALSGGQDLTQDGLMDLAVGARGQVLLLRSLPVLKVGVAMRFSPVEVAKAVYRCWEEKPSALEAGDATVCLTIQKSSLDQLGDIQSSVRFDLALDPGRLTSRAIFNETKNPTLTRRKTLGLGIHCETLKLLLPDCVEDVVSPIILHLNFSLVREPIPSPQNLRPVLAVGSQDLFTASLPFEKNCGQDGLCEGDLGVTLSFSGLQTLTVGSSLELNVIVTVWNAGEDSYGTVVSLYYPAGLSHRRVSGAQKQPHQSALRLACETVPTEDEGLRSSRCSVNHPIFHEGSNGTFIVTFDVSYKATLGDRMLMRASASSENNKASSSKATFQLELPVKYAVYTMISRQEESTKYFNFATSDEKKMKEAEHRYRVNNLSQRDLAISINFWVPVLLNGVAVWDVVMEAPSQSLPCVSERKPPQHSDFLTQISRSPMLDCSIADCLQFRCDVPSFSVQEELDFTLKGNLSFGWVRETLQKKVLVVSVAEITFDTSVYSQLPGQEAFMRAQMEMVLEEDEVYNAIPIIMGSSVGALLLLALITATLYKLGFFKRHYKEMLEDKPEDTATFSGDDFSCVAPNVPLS
T2 sequence (P05107 23-769): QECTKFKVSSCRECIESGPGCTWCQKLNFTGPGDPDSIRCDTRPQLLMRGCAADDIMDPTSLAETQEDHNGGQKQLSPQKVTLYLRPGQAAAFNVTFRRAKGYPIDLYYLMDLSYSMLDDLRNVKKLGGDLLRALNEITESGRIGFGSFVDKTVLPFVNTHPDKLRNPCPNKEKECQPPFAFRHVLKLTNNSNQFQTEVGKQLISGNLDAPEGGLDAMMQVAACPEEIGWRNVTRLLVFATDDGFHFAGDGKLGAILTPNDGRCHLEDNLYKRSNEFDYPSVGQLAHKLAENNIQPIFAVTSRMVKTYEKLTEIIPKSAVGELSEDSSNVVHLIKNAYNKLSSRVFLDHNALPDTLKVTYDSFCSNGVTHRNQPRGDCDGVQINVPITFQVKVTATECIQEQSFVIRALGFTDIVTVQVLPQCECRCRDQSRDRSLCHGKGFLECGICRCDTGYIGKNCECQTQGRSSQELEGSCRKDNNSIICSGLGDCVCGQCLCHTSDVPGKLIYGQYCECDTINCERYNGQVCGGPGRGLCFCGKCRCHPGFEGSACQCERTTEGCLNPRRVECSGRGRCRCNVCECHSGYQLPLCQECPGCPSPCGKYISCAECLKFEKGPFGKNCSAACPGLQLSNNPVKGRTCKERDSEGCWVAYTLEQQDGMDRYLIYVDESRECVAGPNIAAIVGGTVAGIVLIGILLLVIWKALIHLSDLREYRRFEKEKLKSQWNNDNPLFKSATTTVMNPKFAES
T3 sequence (P20701 26-1170): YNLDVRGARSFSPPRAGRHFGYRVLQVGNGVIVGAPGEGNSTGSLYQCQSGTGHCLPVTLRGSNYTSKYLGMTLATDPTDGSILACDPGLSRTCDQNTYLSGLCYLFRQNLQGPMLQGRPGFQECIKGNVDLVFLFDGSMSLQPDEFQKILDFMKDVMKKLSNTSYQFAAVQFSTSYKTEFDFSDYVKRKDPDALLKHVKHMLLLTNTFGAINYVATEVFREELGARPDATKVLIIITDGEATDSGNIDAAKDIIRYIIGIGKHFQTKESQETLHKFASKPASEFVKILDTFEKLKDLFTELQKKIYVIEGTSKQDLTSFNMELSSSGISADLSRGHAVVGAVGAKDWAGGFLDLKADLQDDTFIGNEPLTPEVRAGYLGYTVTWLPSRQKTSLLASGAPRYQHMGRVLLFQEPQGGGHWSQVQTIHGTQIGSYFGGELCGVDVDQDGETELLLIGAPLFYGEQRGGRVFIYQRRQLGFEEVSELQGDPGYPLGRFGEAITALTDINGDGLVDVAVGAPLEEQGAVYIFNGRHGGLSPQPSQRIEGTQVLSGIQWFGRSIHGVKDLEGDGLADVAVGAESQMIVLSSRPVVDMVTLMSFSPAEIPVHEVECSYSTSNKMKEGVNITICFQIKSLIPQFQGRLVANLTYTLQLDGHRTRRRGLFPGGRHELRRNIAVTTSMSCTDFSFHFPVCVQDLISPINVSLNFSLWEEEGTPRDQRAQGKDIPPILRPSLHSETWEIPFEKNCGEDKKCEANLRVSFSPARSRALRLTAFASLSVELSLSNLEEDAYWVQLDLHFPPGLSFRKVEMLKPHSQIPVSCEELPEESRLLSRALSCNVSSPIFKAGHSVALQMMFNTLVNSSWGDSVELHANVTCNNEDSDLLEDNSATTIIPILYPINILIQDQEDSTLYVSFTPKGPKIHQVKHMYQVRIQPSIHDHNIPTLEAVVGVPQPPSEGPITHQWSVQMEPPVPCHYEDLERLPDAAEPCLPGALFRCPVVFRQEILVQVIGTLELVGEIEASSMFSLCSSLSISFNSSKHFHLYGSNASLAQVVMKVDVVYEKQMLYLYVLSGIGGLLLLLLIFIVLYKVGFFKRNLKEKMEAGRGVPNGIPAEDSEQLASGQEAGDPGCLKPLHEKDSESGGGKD
T3 sequence (P05107 23-769): as the sequence (P05107 23-769) above

B1: miHu/VHI/HuVK: ICR-8.1 miHuVHI (Val2 to Ile2) heavy chain with humanized VK (antibody, V domains shown)
VH: QIQLVQSGAEVKKPGASVKVSCKASGYTFTDCIILWVRQAPGQGLEWMGKINPYFGTTTYAQKFQGRVTITADTSTSTAYMELSSLRSEDTAVYYCARKEAYPDAMDYWGQGTLVTVSS
VL: DIVMTQSPLSLPVTPGEPASISCRSSQSLVHSNGDTYLHWYLQKPGQSPQLLIYKVSNRFSGVPDRFSGSGSGTDFTLKISRVEAEDVGVYYCSQSTHVPYTFGQGTKVEIK
B1 was tested. Which “compete less well than murine ICR-8.1 in blocking binding of biotinylated murine ICR-8.1” value (ICAM-R) did it give?
Its value is “about 2 fold”.

B2: ICAM-R/His: histidine-tagged ICAM-R extracellular region fusion protein (protein)
chain: QEFLLRVEPQNPVLSAGGSLFVNCSTDCPSSEKIALETSLSKELVASGMGWAAFNLSNVTGNSRILCSVYCNGSQITGSSNITVYGLPERVELAPLPPWQPVGQNFTLRCQVEGGSPRTSLTVVLLRWEEELSRQPAVEEPAEVTATVLASRDDHGAPFSCRTELDMQPQGLGLFVNTSAPRQLRTFVLPVTPPRLVAPRFLEVETSWPVDCTLDGLFPASEAQVYLALGDQMLNATVMNHGDTLTATATATARADQEGAREIVCNVTLGGERREARENLTVFSFLGPIVNLSEPTAHEGSTVTVSCMAGARVQVTLDGVPAAAPGQTAQLQLNATESDDGRSFFCSATLEVDGEFLHRNSSVQLRVLYGPKIDRATCPQHLKWKDKTRHVLQCQARGNPYPELRCLKEGSSREVPVGIPFFVNVTHNGTYQCQASSSRGKYTLVVVMDIEAFSSH
modifications: left off: small tags and cut ends
notes: histidine-tagged ICAM-R extracellular region fusion protein
With B2 as the molecule, how does the “neutrophil adhesion to immobilized protein” value [1] read?
Its value is “Neutrophils adhered to immobilized ICAM-R/His”.

B3: VCAM-1/IgG: soluble VCAM-1 IgG1 chimeric fusion protein (protein)
chain: FKIETTPESRYLAQIGDSVSLTCSTTGCESPFFSWRTQIDSPLNGKVTNEGTTSTLTMNPVSFGNEHSYLCTATCESRKLEKGIQVEIYSFPKDPEIHLSGPLEAGKPITVKCSVADVYPFDRLEIDLLKGDHLMKSQEFLEDADRKSLETKSLEVTFTPVIEDIGKVLVCRAKLHIDEMDSVPTVRQAVKELQVYISPKNTVISVNPSTKLQEGGSVTMTCSSEGLPAPEIFWSKKLDNGNLQHLSGNATLTLIAMRMEDSGIYVCEGVNLIGKNRKEVELIVQEKPFTVEISPGPRIAAQIGDSVMLTCSVMGCESPSFSWRTQIDSPLSGKVRSEGTNSTLTLSPVSFENEHSYLCTVTCGHKKLEKGIQVELYSFPRDPEIEMSGGLVNGSSVTVSCKVPSVYPLDRLEIELLKGETILENIEFLEDTDMKSLENKSLEMTFIPTIEDTGKALVCQAKLHIDDMEFEPKQRQSTQTLYVNVAPRDTTVLVSPSSILEEGSSVNMTCLSQGFPAPKILWSRQLPNGELQPLSENATLTLISTKMEDSGVYLCEGINQAGRSRKEVELIIQVTPKDIKLTAFPSESVKEGDTVIISCTCGNVPETWIILKKKAETGDTVLKSIDGAYTIRKAQLKDAGVYECESKNKVGSQLRSLTLDVQGRENNKDYFSPE
modifications: left off: a dimerising Fc or GST
notes: soluble VCAM-1 IgG1 chimeric fusion protein
With B3 as the molecule, how does the “increase in binding of αd/CD18 co-transfectants over BSA coated wells” value [2] read?
Its value is “No detectable binding”.

And the “αd/CD18 transfectants binding soluble chimera” value [3]?
Its value is “no binding”.

B4: ICAM-1/IgG: soluble ICAM-1 IgG1 chimeric fusion protein (protein)
chain: QTSVSPSKVILPRGGSVLVTCSTSCDQPKLLGIETPLPKKELLLPGNNRKVYELSNVQEDSQPMCYSNCPDGQSTAKTFLTVYWTPERVELAPLPSWQPVGKNLTLRCQVEGGAPRANLTVVLLRGEKELKREPAVGEPAEVTTTVLVRRDHHGANFSCRTELDLRPQGLELFENTSAPYQLQTFVLPATPPQLVSPRVLEVDTQGTVVCSLDGLFPVSEAQVHLALGDQRLNPTVTYGNDSFSAKASVSVTAEDEGTQRLTCAVILGNQSQETLQTVTIYSFPAPNVILTKPEVSEGTEVTVKCEAHPRAKVTLNGVPAQPLGPRAQLLLKATPEDNGRSFSCSATLEVAGQLIHKNQTRELRVLYGPRLDERDCPGNWTWPENSQQTPMCQAWGNPLPELKCLKDGTFPLPIGESVTVTRDLEGTYLCRARSTQGEVTRKVTVNVLSPRYE
modifications: left off: a dimerising Fc or GST
notes: soluble ICAM-1 IgG1 chimeric fusion protein
What does the source list for B4?
increase in binding of LFA-1 transfected cells [4]: 2-3 fold; αd/CD18 transfectants binding soluble chimera [3]: no binding

B5: ICAM-2: chimeric ICAM-2/IgG fusion protein (protein)
chain: KVFEVHVRPKKLAVEPKGSLEVNCSTTCNQPEVGGLETSLDKILLDEQAQWKHYLVSNISHDTVLQCHFTCSGKQESMNSNVSVYQPPRQVILTLQPTLVAVGKSFTIECRVPTVEPLDSLTLFLFRGNETLHYETFGKAAPAPQEATATFNSTADREDGHRNFSCLAVLDLMSRGGNIFHKHSAPKMLEIYEPVSDSQ
modifications: left off: a dimerising Fc or GST
notes: chimeric ICAM-2/IgG fusion protein
How did the “neutrophil binding relative to ICAM-1” value [5] turn out when B5 was run?
Its value is “approximately 70%”.

From US20040248211A1, “ICAM-related protein” (priority 1992, published 2004)
